From patent US20170290886A1, “TREATMENT OF NEURODEVELOPMENTAL DISORDERS” (Academia Sinica, priority 2016, published 2017)

Target: T1, MeCP2 (Homo sapiens, UniProt P51608)
T1 construct: GST; purchased Prospec
Assay: In vitro SUMOylation assay with recombinant proteins
Type: biochemical
Settings: E1, E2, PIAS1 and MeCP2 proteins added; FIG. 1a
Protocol: In vitro SUMOylation assay was performed by using the SUMO link kit according to the manufacturer's instructions (Active Motif, Carlsbad, Calif.). Recombinant GST-tagged MeCP2 protein (Prospec, East Brunswick, N.J.), His-tagged PIAS1 protein purified from His-bind resin (Novagen, Wis.), and GST-tagged SENP1 protein (Enzo, Ann Arbor, Mich.) were used for assays at 30° C. for 3 h and then boiled in Laemmli sample buffer at 95° C. for 10 min. The in vitro SUMOylation product was subject to 8% SDS-PAGE followed by transferring onto the NC membrane. The membrane was immunoblotted with anti-His and anti-GST antibodies.

T1 sequence (P51608 whole entry, species assumed): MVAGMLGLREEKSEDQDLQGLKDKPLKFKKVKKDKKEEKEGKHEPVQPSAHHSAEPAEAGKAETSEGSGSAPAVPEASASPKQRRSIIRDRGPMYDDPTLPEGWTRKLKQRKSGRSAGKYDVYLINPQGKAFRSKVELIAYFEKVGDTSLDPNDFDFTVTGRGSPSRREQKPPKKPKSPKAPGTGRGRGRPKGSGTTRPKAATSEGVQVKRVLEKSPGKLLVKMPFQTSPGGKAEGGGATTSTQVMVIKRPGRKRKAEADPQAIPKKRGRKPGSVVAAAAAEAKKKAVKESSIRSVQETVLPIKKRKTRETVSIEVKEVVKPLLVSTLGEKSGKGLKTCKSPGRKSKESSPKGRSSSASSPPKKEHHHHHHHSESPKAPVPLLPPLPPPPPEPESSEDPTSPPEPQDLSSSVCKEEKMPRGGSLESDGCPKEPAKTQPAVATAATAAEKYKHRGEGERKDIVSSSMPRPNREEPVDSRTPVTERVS

B1: SENP1: an enzyme that removes the sumo molecule from sumo-conjugated protein (protein, UniProt Q9P0U3 1-644, looked up)
Sentrin-specific protease 1: MDDIADRMRMDAGEVTLVNHNSVFKTHLLPQTGFPEDQLSLSDQQILSSRQGHLDRSFTCSTRSAAYNPSYYSDNPSSDSFLGSGDLRTFGQSANGQWRNSTPSSSSSLQKSRNSRSLYLETRKTSSGLSNSFAGKSNHHCHVSAYEKSFPIKPVPSPSWSGSCRRSLLSPKKTQRRHVSTAEETVQEEEREIYRQLLQMVTGKQFTIAKPTTHFPLHLSRCLSSSKNTLKDSLFKNGNSCASQIIGSDTSSSGSASILTNQEQLSHSVYSLSSYTPDVAFGSKDSGTLHHPHHHHSVPHQPDNLAASNTQSEGSDSVILLKVKDSQTPTPSSTFFQAELWIKELTSVYDSRARERLRQIEEQKALALQLQNQRLQEREHSVHDSVELHLRVPLEKEIPVTVVQETQKKGHKLTDSEDEFPEITEEMEKEIKNVFRNGNQDEVLSEAFRLTITRKDIQTLNHLNWLNDEIINFYMNMLMERSKEKGLPSVHAFNTFFFTKLKTAGYQAVKRWTKKVDVFSVDILLVPIHLGVHWCLAVVDFRKKNITYYDSMGGINNEACRILLQYLKQESIDKKRKEFDTNGWQLFSKKSQEIPQQMNGSDCGMFACKYADCITKDRPINFTQQHMPYFRKRMVWEILHRKLL
modifications: GST tag
notes: an enzyme that removes the sumo molecule from sumo-conjugated protein
  MeCP2 SUMOylation: blocked
